According to patent publication US20170342144A1 (Sanofi, published 2017):

T1: human TGFβ2 (human, UniProt P61812 303-414)
T1 construct: also called TGFβ2 homodimer
T1 sequence: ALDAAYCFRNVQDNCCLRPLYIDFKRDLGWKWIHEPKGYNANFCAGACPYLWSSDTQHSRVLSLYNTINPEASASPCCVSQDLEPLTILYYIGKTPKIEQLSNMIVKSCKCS

T2: human TGFβ3 (human, UniProt P10600 301-412)
T2 sequence: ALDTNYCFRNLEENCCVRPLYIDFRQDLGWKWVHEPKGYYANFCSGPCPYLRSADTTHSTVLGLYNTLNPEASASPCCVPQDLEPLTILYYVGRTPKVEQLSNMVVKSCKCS


What was measured:
Experiment in all cases: Biacore off-rate vs wt GC1008, 50 nM
human TGFβ1 = molecular target: T3, human TGFβ1 (human, UniProt P01137 279-390)
T3 construct: also called TGFβ1 homodimer
Description: (§1) Plasmids encoding either the GC1008 heavy chain or light chain were used as a template in PCR-based mutagenesis reactions. Mutations to the encoding DNA were made to create 155 single amino acid substitutions of the encoded heavy chain amino acid sequence and one single amino acid substitution of the encoded light chain amino acid sequence. A QuikChange® Lightning Site-Directed Mutagenesis kit (Agilent Technologies, Santa Clara Calif.) was used according to the manufacturer's instructions to create DNA mutations using a set of forward and reverse primers, either designed for a specific amino acid or for all 20 amino acids with a degenerate codon (NNK). After sequencing confirmation, identified mutant DNA was paired with a wild-type light or heavy chain DNA for transfection into an Expi293F™ host cell suspension (Life Techonologies Corp., Grand Island, N.Y.). At 4 days post-transfection, conditioned media (1 mL) was harvested and purified using a 1 mL Protein A PhyTip® column (PhyNexus, Inc., San Jose, Calif.) and a PureSpeed™ 12-channel pipette (Rainin Instrument LLC, Oakland, Calif.). Purified variant antibody samples were analyzed in duplicate on a Biacore® 3000 (GE Healthcare) at 50 nM concentrations, using the 100 RU level TGFβ1, 2, and 3 immobilized surfaces. The off-rate (kd) of the variants was divided by the kd of the wild-type control to obtain the fold change in the kd. […] A heat map was generated to visualize the results. Variants that completely lost affinity for TGFβ were shown in red without numbers.

human TGFβ2 = molecular target: T1, human TGFβ2
Description: as §1

human TGFβ3 = molecular target: T2, human TGFβ3
Description: as §1

T3 sequence (P01137 279-390 limits assumed): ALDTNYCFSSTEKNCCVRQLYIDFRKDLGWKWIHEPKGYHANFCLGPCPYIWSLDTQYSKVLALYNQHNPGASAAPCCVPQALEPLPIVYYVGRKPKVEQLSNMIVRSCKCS

Binder	kd var/kd wt (human TGFβ1)	kd var/kd wt (human TGFβ2)	kd var/kd wt (human TGFβ3)
N32A (antibody, V domains shown, GC1008 IgG4 variant) VH: QVQLVQSGAEVKKPGSSVKVSCKASGYTFSSAVISWVRQAPGQGLEWMGGVIPIVDIANYAQRFKGRVTITADESTSTTYMELSSLRSEDTAVYYCASTLGLVLDAMDYWGQGTLVTVSS VL: ETVLTQSPGTLSLSPGERATLSCRASQSLGSSYLAWYQQKPGQAPRLLIYGASSRAPGIPDRFSGSGSGTDFTLTISRLEPEDFAVYYCQQYADSPITFGQGTRLEIK	1.3	1.4	1.5
N32D (antibody, V domains shown, GC1008 IgG4 variant) VH: QVQLVQSGAEVKKPGSSVKVSCKASGYTFSSDVISWVRQAPGQGLEWMGGVIPIVDIANYAQRFKGRVTITADESTSTTYMELSSLRSEDTAVYYCASTLGLVLDAMDYWGQGTLVTVSS VL: ETVLTQSPGTLSLSPGERATLSCRASQSLGSSYLAWYQQKPGQAPRLLIYGASSRAPGIPDRFSGSGSGTDFTLTISRLEPEDFAVYYCQQYADSPITFGQGTRLEIK	1.3	1.4	1.8
N32Q (antibody, V domains shown, GC1008 IgG4 variant) VH: QVQLVQSGAEVKKPGSSVKVSCKASGYTFSSQVISWVRQAPGQGLEWMGGVIPIVDIANYAQRFKGRVTITADESTSTTYMELSSLRSEDTAVYYCASTLGLVLDAMDYWGQGTLVTVSS VL: ETVLTQSPGTLSLSPGERATLSCRASQSLGSSYLAWYQQKPGQAPRLLIYGASSRAPGIPDRFSGSGSGTDFTLTISRLEPEDFAVYYCQQYADSPITFGQGTRLEIK	0.8	0.8	0.7
N32G (antibody, V domains shown, GC1008 IgG4 variant) VH: QVQLVQSGAEVKKPGSSVKVSCKASGYTFSSGVISWVRQAPGQGLEWMGGVIPIVDIANYAQRFKGRVTITADESTSTTYMELSSLRSEDTAVYYCASTLGLVLDAMDYWGQGTLVTVSS VL: ETVLTQSPGTLSLSPGERATLSCRASQSLGSSYLAWYQQKPGQAPRLLIYGASSRAPGIPDRFSGSGSGTDFTLTISRLEPEDFAVYYCQQYADSPITFGQGTRLEIK	1.2	1.2	1.6
N32P (antibody, V domains shown, GC1008 IgG4 variant) VH: QVQLVQSGAEVKKPGSSVKVSCKASGYTFSSPVISWVRQAPGQGLEWMGGVIPIVDIANYAQRFKGRVTITADESTSTTYMELSSLRSEDTAVYYCASTLGLVLDAMDYWGQGTLVTVSS VL: ETVLTQSPGTLSLSPGERATLSCRASQSLGSSYLAWYQQKPGQAPRLLIYGASSRAPGIPDRFSGSGSGTDFTLTISRLEPEDFAVYYCQQYADSPITFGQGTRLEIK	2	1.1	1.4
N32S (antibody, V domains shown, GC1008 IgG4 variant) VH: QVQLVQSGAEVKKPGSSVKVSCKASGYTFSSSVISWVRQAPGQGLEWMGGVIPIVDIANYAQRFKGRVTITADESTSTTYMELSSLRSEDTAVYYCASTLGLVLDAMDYWGQGTLVTVSS VL: ETVLTQSPGTLSLSPGERATLSCRASQSLGSSYLAWYQQKPGQAPRLLIYGASSRAPGIPDRFSGSGSGTDFTLTISRLEPEDFAVYYCQQYADSPITFGQGTRLEIK	1.3	1.3	1.2
N32R (antibody, V domains shown, GC1008 IgG4 variant) VH: QVQLVQSGAEVKKPGSSVKVSCKASGYTFSSRVISWVRQAPGQGLEWMGGVIPIVDIANYAQRFKGRVTITADESTSTTYMELSSLRSEDTAVYYCASTLGLVLDAMDYWGQGTLVTVSS VL: ETVLTQSPGTLSLSPGERATLSCRASQSLGSSYLAWYQQKPGQAPRLLIYGASSRAPGIPDRFSGSGSGTDFTLTISRLEPEDFAVYYCQQYADSPITFGQGTRLEIK	2.3	1.2	1.7
N32L (antibody, V domains shown, GC1008 IgG4 variant) VH: QVQLVQSGAEVKKPGSSVKVSCKASGYTFSSLVISWVRQAPGQGLEWMGGVIPIVDIANYAQRFKGRVTITADESTSTTYMELSSLRSEDTAVYYCASTLGLVLDAMDYWGQGTLVTVSS VL: ETVLTQSPGTLSLSPGERATLSCRASQSLGSSYLAWYQQKPGQAPRLLIYGASSRAPGIPDRFSGSGSGTDFTLTISRLEPEDFAVYYCQQYADSPITFGQGTRLEIK	1.6	1.3	1.7
N32M (antibody, V domains shown, GC1008 IgG4 variant) VH: QVQLVQSGAEVKKPGSSVKVSCKASGYTFSSMVISWVRQAPGQGLEWMGGVIPIVDIANYAQRFKGRVTITADESTSTTYMELSSLRSEDTAVYYCASTLGLVLDAMDYWGQGTLVTVSS VL: ETVLTQSPGTLSLSPGERATLSCRASQSLGSSYLAWYQQKPGQAPRLLIYGASSRAPGIPDRFSGSGSGTDFTLTISRLEPEDFAVYYCQQYADSPITFGQGTRLEIK	1.3	1.3	1.2

Now from value to binder:

kd var/kd wt (human TGFβ1)	kd var/kd wt (human TGFβ2)	kd var/kd wt (human TGFβ3)	Binder
2.4	1.1	1.5	N59R (antibody, V domains shown, GC1008 IgG4 variant) VH: QVQLVQSGAEVKKPGSSVKVSCKASGYTFSSNVISWVRQAPGQGLEWMGGVIPIVDIARYAQRFKGRVTITADESTSTTYMELSSLRSEDTAVYYCASTLGLVLDAMDYWGQGTLVTVSS VL: ETVLTQSPGTLSLSPGERATLSCRASQSLGSSYLAWYQQKPGQAPRLLIYGASSRAPGIPDRFSGSGSGTDFTLTISRLEPEDFAVYYCQQYADSPITFGQGTRLEIK
1.3	1.1	1.5	N59Y (antibody, V domains shown, GC1008 IgG4 variant) VH: QVQLVQSGAEVKKPGSSVKVSCKASGYTFSSNVISWVRQAPGQGLEWMGGVIPIVDIAYYAQRFKGRVTITADESTSTTYMELSSLRSEDTAVYYCASTLGLVLDAMDYWGQGTLVTVSS VL: ETVLTQSPGTLSLSPGERATLSCRASQSLGSSYLAWYQQKPGQAPRLLIYGASSRAPGIPDRFSGSGSGTDFTLTISRLEPEDFAVYYCQQYADSPITFGQGTRLEIK
2.1	1.2	1.7	N32Y (antibody, V domains shown, GC1008 IgG4 variant) VH: QVQLVQSGAEVKKPGSSVKVSCKASGYTFSSYVISWVRQAPGQGLEWMGGVIPIVDIANYAQRFKGRVTITADESTSTTYMELSSLRSEDTAVYYCASTLGLVLDAMDYWGQGTLVTVSS VL: ETVLTQSPGTLSLSPGERATLSCRASQSLGSSYLAWYQQKPGQAPRLLIYGASSRAPGIPDRFSGSGSGTDFTLTISRLEPEDFAVYYCQQYADSPITFGQGTRLEIK
1.5	1.1	1.4	N32V (antibody, V domains shown, GC1008 IgG4 variant) VH: QVQLVQSGAEVKKPGSSVKVSCKASGYTFSSVVISWVRQAPGQGLEWMGGVIPIVDIANYAQRFKGRVTITADESTSTTYMELSSLRSEDTAVYYCASTLGLVLDAMDYWGQGTLVTVSS VL: ETVLTQSPGTLSLSPGERATLSCRASQSLGSSYLAWYQQKPGQAPRLLIYGASSRAPGIPDRFSGSGSGTDFTLTISRLEPEDFAVYYCQQYADSPITFGQGTRLEIK
4.3	1.6	1.3	P53I (antibody, V domains shown, GC1008 IgG4 variant) VH: QVQLVQSGAEVKKPGSSVKVSCKASGYTFSSNVISWVRQAPGQGLEWMGGVIIIVDIANYAQRFKGRVTITADESTSTTYMELSSLRSEDTAVYYCASTLGLVLDAMDYWGQGTLVTVSS VL: ETVLTQSPGTLSLSPGERATLSCRASQSLGSSYLAWYQQKPGQAPRLLIYGASSRAPGIPDRFSGSGSGTDFTLTISRLEPEDFAVYYCQQYADSPITFGQGTRLEIK
1.5	1.2	1.1	N32T (antibody, V domains shown, GC1008 IgG4 variant) VH: QVQLVQSGAEVKKPGSSVKVSCKASGYTFSSTVISWVRQAPGQGLEWMGGVIPIVDIANYAQRFKGRVTITADESTSTTYMELSSLRSEDTAVYYCASTLGLVLDAMDYWGQGTLVTVSS VL: ETVLTQSPGTLSLSPGERATLSCRASQSLGSSYLAWYQQKPGQAPRLLIYGASSRAPGIPDRFSGSGSGTDFTLTISRLEPEDFAVYYCQQYADSPITFGQGTRLEIK
1.9	1.2	1.1	N32W (antibody, V domains shown, GC1008 IgG4 variant) VH: QVQLVQSGAEVKKPGSSVKVSCKASGYTFSSWVISWVRQAPGQGLEWMGGVIPIVDIANYAQRFKGRVTITADESTSTTYMELSSLRSEDTAVYYCASTLGLVLDAMDYWGQGTLVTVSS VL: ETVLTQSPGTLSLSPGERATLSCRASQSLGSSYLAWYQQKPGQAPRLLIYGASSRAPGIPDRFSGSGSGTDFTLTISRLEPEDFAVYYCQQYADSPITFGQGTRLEIK
